Experimental data from article PMC7261735.

Key:
Assay in all cases: SPR; Biacore T200; recombinant human TNFα immobilized on a CM5 chip, antibody captured through binding to TNFα; association and dissociation globally fit to a 1:1 binding model; average of 3 intra-assay replicates per lot
ABP 710 = target: ABP 710
infliximab (US) = target: infliximab (US)
infliximab (EU) = target: infliximab (EU)

| Kd (ABP 710) [nM] | Kd (infliximab (US)) [nM] | Kd (infliximab (EU)) [nM] | Substance |
| --- | --- | --- | --- |
| 68 to 80 |  |  | FcγRIIIa (158V) |
|  | 63 to 93 | 59 to 89 | FcγRIIIa (158V) (receptor) |
